Consider eight molecules from patent US11634743B2, “Coupled, self-sufficient biotransformation of chenodeoxcholic acid to ursodeoxycholic acid and novel enzyme mutants applicable in said process” (Pharmazell GmbH, priority 2016, dated 2023).

The nature of series [1]: Coupled one-step conversion of CDCA to UDCA with isolated enzymes, NAD(H) as cofactor. It counts as biochemical. Conditions: 25 mM CDCA, 100 mM KPi pH 7.0, 25° C., 0.25 mM NAD^+.
Series [2] is described as follows: Coupled one-step conversion of CDCA to UDCA with isolated enzymes, NADP(H) as cofactor. As to conditions: 10 mM CDCA, 100 mM KPi pH 6.0, 25° C., 0.5 mM NADP^+. It counts as biochemical. As for the experimental part: The enzymatic synthesis of UDCA with isolated enzymes was performed standardized in 100 mM KPi buffer (pH 7.0) at 25° C. The reaction mixtures were magnetically stirred at 500 to 700 rpm. The cofactor concentration was 0.25 mM NAD^+. For the biotransformation with NAD^+ as cofactor, the reaction was performed with […] enzyme, and for the biotransformation with NADP^+ as cofactor the reaction was performed with 0.5 U/ml 7α-HSDH and 1.0 U/ml 7β-HSDH. After pre-determined time intervals, samples were taken and analyzed by means of HPLC.
In a second experiment, the biotransformation was performed in a one-step process with NADP(H) as cofactor. The enzymatic conversion of 10 mM CDCA was performed in 100 mM KPi buffer pH 6.0 at 25° C. with the 7β-HSDH [G39S/R64E] (SEQ ID NO:45) and the Cd7α-HSDH from C. difficile (SEQ ID NO:35) in a one-step process. The cofactor concentration was 0.5 mM NADP^+. For the 7-KLCA reduction, a […] 7β-HSDH from C. aerofaciens was applied and for the CDCA oxidation step the 7α-HSDH from C. difficile was applied. As illustrated a one-step conversion of CDCA in a directly coupled oxidation and reduction reaction with a NADP^+-dependent 7β-HSDH is operable.

A short description of series [3]: Photometric activity assay of E. coli 7α-HSDH wildtype and mutants (crude extracts). It counts as biochemical. Conditions: crude extract, substrate CDCA. As for the experimental part: The reaction mixture contained in a total volume of 1 ml:
880 μl 50 mM potassium phosphate (KPi) buffer, pH 8.0
100 μl 100 mM CDCA (dissolved in 50 mM KPi, pH 8)
10 μl Enzyme solution (in buffer as above, in the range of 2 to 6 U/ml)
10 μl 50 mM NAD^+ or NADP^+ (dissolved in ddH2O)
An increase of extinction was determined at 340 nm over a period of 30 seconds and the activity was expressed as enzyme unit (1 U corresponds to a conversion of 1 μmol NAD(P)H/min). The molar extinction coefficient was 6.22 mM^−1×cm^−1.
The photometric activity assay of the crude extract was performed by means of a UV-1700 spectrophotometer (Shimadzu, Japan) (see method described above under item 1.7). In Table 8, the specific activity values of individual mutants as obtained for NAD^+ and NADP^+ are summarized.

For series [4] the following is noted: CDCA as substrate.
A short description of series [5]: Small-scale biotransformation of CDCA to 7-KLCA with Cd7α-HSDH and NAD(P)H oxidase, HPLC. It counts as biochemical. As to conditions: 10 mM CDCA, NADP^+ regenerated by NAD(P)H oxidase, after 18.5 h. As for the experimental part:
FIG. 5: Biotransfomation of CDCA (10 mM) in aqueous system (KPi, pH 7.0), containing 5 U Cd7α-HSDH and 50 U NOX during 18.5 hours. After 3.5 h and 7 h additional 50 U NOX were added to the reaction. Concentration of CDCA (-∘-CDCA) and 7-KLCA (-⋅-7-KLCA) were determined by HPLC.
HPLC analysis was performed on a Purospher® STAR RP-18 column (Merck, Germany) on a HPLC LC-2010AHT-System (Shimadzu, Japan) at a flow rate of 1 ml/min. The mobile phase consisted of two eluents. Eluent A was distilled water (pH 2.6 adjusted with orthophosphoric acid 85%) and eluent B HPLC-grade acetonitrile. The starting condition for the gradient program was 65% eluent A and 35% eluent B. The system was monitored by UV detector at 200 nm. Totally, 20 μl samples with a bile acid concentration in the range of 1 mg/ml were analyzed. Authentic samples of CDCA, 7-KLCA and UDCA at the same concentration were used as references.
For the biotransformation in a small-scale 10 mM CDCA in KPi-buffer (100 mM, pH 7.0), 0.1 mM NADP^+, 0.5 U mL^−1 Cd7α-HSDH and 5 U mL^−1 NADPH-oxidase were incubated at 25° C. The biotransformation were done in glass vials with a stirring bar in it and a stirrer speed of 500 rpm for 18 hours. Samples were taken periodically and diluted with methanol-water (pH 2.6) (9:1 v/v) for H PLC-analysis. […]

B1: 7β-HSDH [G39E]: NAD(H)-dependent 7β-HSDH mutant G39E from C. aerofaciens, SEQ ID NO:48 (C-His-Tag) (protein)
chain: MNLREKYGEWGLILGATEGVGKAFCEKIAAGGMNVVMVERREEKLNVLAGEIRETYGVETKVVRADFSQPGAAETVFAATEGLDMGFMSYVACLHSFGKIQDTPWEKHEAMINVNVVTFLKCFHHYMRIFAAQDRGAVINVSSMTGISSSPWNGQYGAGKAFILKMTEAVACECEGTGVDVEVITLGTTLTPSLLSNLPGGPQGEAVMKIALTPEECVDEAFEKLGKELSVIAGQRNKDSVHDWKANHTEDEYIRYMGSFYRDLEHHHHHH
modifications: C-terminal His-tag; 7beta-HSDH Mutante [G39E] C. aerofaciens + C-terminal His-Tag
On to B1, for which the “one-step conversion of CDCA in directly coupled oxidation and reduction” value in series [1] is “operable”.

B2: 7β-HSDH [G39S/R64E]: NADP+-dependent 7β-HSDH double mutant G39S/R64E from C. aerofaciens, SEQ ID NO:45 (protein)
chain: MNLREKYGEWGLILGATEGVGKAFCEKIAAGGMNVVMVSRREEKLNVLAGEIRETYGVETKVVEADFSQPGAAETVFAATEGLDMGFMSYVACLHSFGKIQDTPWEKHEAMINVNVVTFLKCFHHYMRIFAAQDRGAVINVSSMTGISSSPWNGQYGAGKAFILKMTEAVACECEGTGVDVEVITLGTTLTPSLLSNLPGGPQGEAVMKIALTPEECVDEAFEKLGKELSVIAGQRNKDSVHDWKANHTEDEYIRYMGSFYRDLEHHHHHH
modifications: 7beta-HSDH Mutant [G39S/R64E] C. aerofaciens + C-terminal His-tag
On to B2, for which the “one-step conversion of CDCA in directly coupled oxidation and reduction” value in series [2] is “operable”.

B3: 7α-HSDH [D42G/I43R]: NADP+-dependent double mutant D42G/I43R of E. coli 7α-HSDH, SEQ ID NO: 41 (N-His-Tag) (protein)
chain: MGSSHHHHHHSSGLVPRGSHMFNSDNLRLDGKCAIITGAGAGIGKEIAITFATAGASVVVSGRNADAANHVVDEIQQLGGQAFACRCDITSEQELSALADFAISKLGKVDILVNNAGGGGPKPFDMPMADFRRAYELNVFSFFHLSQLVAPEMEKNGGGVILTITSMAAENKNINMTSYASSKAAASHLVRNMAFDLGEKNIRVNGIAPGAILTDALKSVITPEIEQKMLQHTPIRRLGQPQDIANAALFLCSPAASWVSGQILTVSGGGVQELN
modifications: N-terminal His-tag; 7alpha HSDH E. coli mutant D42G/I43R + N-terminal His-Tag
As to B3, in series [3], the “activity with NADP^+” value came out at 6.3 U/mg and the “activity with NAD^+” value turned out to be 0.1 U/mg. Besides, in series [3] (listed as no. 4), the “activity with NADP^+” value is listed as “about 6.3 U/mg” and the “activity with NAD^+” value is listed as “only marginal activity”.

B4: 7α-HSDH [wildtype]: NAD+-dependent 7α-HSDH of E. coli, wildtype, SEQ ID NO: 38 (N-His-Tag) (protein)
chain: MGSSHHHHHHSSGLVPRGSHMFNSDNLRLDGKCAIITGAGAGIGKEIAITFATAGASVVVSDINADAANHVVDEIQQLGGQAFACRCDITSEQELSALADFAISKLGKVDILVNNAGGGGPKPFDMPMADFRRAYELNVFSFFHLSQLVAPEMEKNGGGVILTITSMAAENKNINMTSYASSKAAASHLVRNMAFDLGEKNIRVNGIAPGAILTDALKSVITPEIEQKMLQHTPIRRLGQPQDIANAALFLCSPAASWVSGQILTVSGGGVQELN
modifications: N-terminal His-tag; E. coli 7alpha HSDH WT + N-terminal His Tag
As to B4, in series [3], the “activity with NADP^+” value is given as 0 U/mg and the “activity with NAD^+” value came out at 51.6 U/mg.

B5: 7α-HSDH [D42A/I43R]: double mutant D42A/I43R of E. coli 7α-HSDH (SEQ ID NO: 37) (protein, listed as Escherichia coli)
chain: MFNSDNLRLDGKCAIITGAGAGIGKEIAITFATAGASVVVSARNADAANHVVDEIQQLGGQAFACRCDITSEQELSALADFAISKLGKVDILVNNAGGGGPKPFDMPMADFRRAYELNVFSFFHLSQLVAPEMEKNGGGVILTITSMAAENKNINMTSYASSKAAASHLVRNMAFDLGEKNIRVNGIAPGAILTDALKSVITPEIEQKMLQHTPIRRLGQPQDIANAALFLCSPAASWVSGQILTVSGGGVQELN
On to B5, for which, in series [3], the “activity with NADP^+” value was found to be 2.1 U/mg and the “activity with NAD^+” value was found to be 0 U/mg.

B6: 7α-HSDH [D42G]: single mutant D42G of E. coli 7α-HSDH (SEQ ID NO: 37) (protein, listed as Escherichia coli)
chain: MFNSDNLRLDGKCAIITGAGAGIGKEIAITFATAGASVVVSGINADAANHVVDEIQQLGGQAFACRCDITSEQELSALADFAISKLGKVDILVNNAGGGGPKPFDMPMADFRRAYELNVFSFFHLSQLVAPEMEKNGGGVILTITSMAAENKNINMTSYASSKAAASHLVRNMAFDLGEKNIRVNGIAPGAILTDALKSVITPEIEQKMLQHTPIRRLGQPQDIANAALFLCSPAASWVSGQILTVSGGGVQELN
Regarding B6, in series [3], the “activity with NADP^+” value came out at 0.3 U/mg and the “activity with NAD^+” value is recorded as 0.4 U/mg.

B7: 7α-HSDH [I43R]: single mutant I43R of E. coli 7α-HSDH (SEQ ID NO: 37) (protein, listed as Escherichia coli)
chain: MFNSDNLRLDGKCAIITGAGAGIGKEIAITFATAGASVVVSDRNADAANHVVDEIQQLGGQAFACRCDITSEQELSALADFAISKLGKVDILVNNAGGGGPKPFDMPMADFRRAYELNVFSFFHLSQLVAPEMEKNGGGVILTITSMAAENKNINMTSYASSKAAASHLVRNMAFDLGEKNIRVNGIAPGAILTDALKSVITPEIEQKMLQHTPIRRLGQPQDIANAALFLCSPAASWVSGQILTVSGGGVQELN
For B7, in series [3], the “activity with NADP^+” value is reported as 0.4 U/mg and the “activity with NAD^+” value is on record as 51.8 U/mg.

B8: Cd7α-HSDH: NADP+-dependent 7α-hydroxysteroid dehydrogenase from Clostridium difficile (DSM 12056), SEQ ID NO: 34; with N-His-tag SEQ ID NO: 35 (protein)
chain: MEKLQGKIAVVTAATKGIGLASAEILAKNGATVYLAARSEELAHEVINKISAEGGCAKFVYFNAREEETFTSMIEEVVKKEGKIDILVNNFGSTNPSLDKDLVTGDTDNFFDTVNTNLKSVYLPCKAAIPHMIKNGKGSIVNISSIGSVLPDLSRIAYCVSKAAINSLTQNIATQYAKDNVRCNAVLPGLIATKAALDNMSPEFIKEFLKHVPLNRIGEPDDIAKAVLFYASDDSSFITGDLLEVAGGFGLPTPQFADNILG
modifications: Clostridium difficile
With B8, the activity in series [4] (45° C.) is 11 U mg^−1. In addition, the “activity (maximum)” value in series [4] (60° C.) amounted to 77 U mg^−1. The “temperature of maximum activity” value in series [4] (investigated between 15 and 65° C.) was 60 °C. Besides, the “one-step conversion of CDCA in directly coupled oxidation and reduction” value in series [2] is listed as “operable”. In addition, the “conversion of CDCA to 7-KLCA” value was more than 99% in series [5] and less than 99% in series [5] (listed as enzyme from C. difficile).
